Patent US7655453B2, “Recombinant Candida rugosa lipases” (Academia Sinica, priority 2001, dated 2010)

Substrate: CCCCC/C=C\C/C=C\CCCCCCCC(=O)O[C@H]1CC[C@@]2(C)C(=CC[C@H]3[C@@H]4CC[C@H]([C@H](C)CCCC(C)C)[C@@]4(C)CC[C@@H]32)C1
Experiment: purified protein, by the assay type
Type: biochemical, Candida rugosa
Details: other: 37° C., pH 7.0, Trx-LIP4 29 nM, average of three independent experiments
Text: Construction of expression vectors The E. coli expression vectors pET23a-LIP4-S19 and pET23a-trx-LIP4-S19 were constructed as described in Tang et al. (2000) Protein Exp. Purif. 20: 308-313. Open-reading frames of LIP1, LIP2, LIP3, and LIP5 without the leader sequence were obtained by reverse transcription-polymerase chain reaction (RT-PCR). See Longhi et al. (1992) Biochim. Biophy. […] The chimeric DNA sequences were constructed by replacing the SphI(184)-BstXI(304) restriction DNA fragment of LIP4 with the corresponding fragments of LIP1, LIP2, LIP3, or LIP5, respectively. The resulting sequences encode mature chimeric C. rugosa lipases, denoted as TrX-LIP4/lid1, TrX-LIP4/lid2, TrX-LIP4/lid3, and TrX-LIP4/lid5, and were confirmed by DNA sequencing.
Preparation of recombinant LIP4 from E. coli. E. coli strain AD494(DE3) (Novagen, Milwaukee, Wis.) harboring recombinant plasmid was grown overnight at 37° C. in Luria-Bertani (LB) broth supplemented with 50 μg/mL ampicillin and 15 μg/mL kanamycin. The cells were then diluted 20-fold into fresh medium and incubated with shaking at 25° C. After adding IPTG to give a final concentration of 0.05 mM, the cells were incubated at 10° C. until OD600 reached 1.0.
Purification of recombinant LIP4. After induction, the AD494(DE3) transformants were harvested by centrifugation at 4000 g and 4° C. for 10 min. The cell pellet was resuspended in TE buffer (20 mM Tris-HCl and 2.5 mM EDTA, pH 8.0). The cells were disrupted with a sonicator, and the soluble fractions of the cell lysates were then collected by centrifugation at 15,000 g at 4° C. for 30 min. The soluble fractions were concentrated by ultrafiltration on a 10,000 molecular weight cut-off membrane. These samples were then applied onto a DEAE-Sepharose CL-6B (Pharmacia Biotech) column equilibrated with TE buffer. Recombinant lipases were eluted using a linear gradient of 0 to 100 mM (NH4)2SO4 over 5 column volumes.
The eluted proteins were then applied to a Butyl-Sepharose 4 Fast Flow (Pharmacia Biotech) hydrophobic interaction column. The column was washed with 5 bed volumes of TE buffer plus 1 mM and then 4 mM CHAPS. Bound proteins were then eluted with 5 bed volumes of TE buffer containing 30 mM CHAPS. The eluted samples were dialyzed against TE buffer and stored in a storage buffer (60 mM KCl, 10 mM Tris-HCl, 1.25 mM EDTA, 1% Triton X-100, and 17% glycerol, pH 7.5) at −20° C. Protein concentrations in the fractions were measured with the Bio-Rad assay kit, and esterase activity was determined using p-nitrophenyl butyrate as a substrate. The molecular masses of the purified recombinant lipases and a commercial lipase (Lipase Type VII, Sigma L1754) were determined by SDS-PAGE analysis. […]

B1: Candida rugosa lipase 4 (LIP4), recombinant, E. coli thioredoxin fused to the N-terminal (Trx-LIP4) (Diutina rugosa) (protein)
chain: SMNSRGPAGRLGSVPTATLANGDTITGLNAIINEAFLGIPFAQPPVGNLRFKPPVPYSASLNGQKFTSYGPSCMQMNPLGNWDSSLPKAAINSLMQSKLFQAVLPNGEDCLTINVVRPSGTKPGANLPVMVWIFGGGFEVGGSSLFPPAQMITASVLMGKPIIHVSMNYRVASWGFLAGPDIKAEGSGNAGLHDQRLGLQWVADNIAGFGGDPSKVTIFGESAGSMSVMCQLLWNDGDNTYNGKPLFRAAIMQSGAMVPSDPVDGPYGTQIYDQVVASAGCGSASDKLACLRSISNDKLFQATSDTPGALAYPSLRLSFLPRPDGTFITDDMFKLVRDGKCANVPVIIGDQNDEGTVFALSSLNVTTDAQARQYFKESFIHASDAEIDTLMAAYPSDITQGSPFDTGIFNAITPQFKRIAAVLGDLAFTLPRRYFLNHFQGGTKYSFLSKQLSGLPVIGTHHANDIVWQDFLVSHSSAVYNNAFIAFANDLDPNKAGLLVNWPKYTSSSQSGNNLLQINALGLYTGKDNFRTAGYDALFTNPSSFFV
  Km: 104 ± 10 10^−3 mM
  Vmax: 2.9 µmol/min/mg
  kcat: 3.37 ± 0.135 s⁻¹
  kcat/Km: 32300 ± 2320 M⁻¹ s⁻¹
